# T1: HXT huCTLA4 his (non-mutated) (human, UniProt P16410 37-162)
# T1 construct: not shown: his-tag
# T1 sequence: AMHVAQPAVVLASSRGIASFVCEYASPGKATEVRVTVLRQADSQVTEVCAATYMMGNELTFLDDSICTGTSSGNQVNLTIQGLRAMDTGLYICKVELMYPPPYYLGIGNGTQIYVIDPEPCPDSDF
# Tests used:
# [1] = target: T1, HXT huCTLA4 his (non-mutated); assay: ELISA: antigen coated at 1.0 µg/mL, huJS007-47 2.5-fold dilutions from 1000 to 0.042 ng/mL, HRP goat anti-human IgG (Fc), OD 450-620 nm; unit from the axis 'Log:ng/mL'
# Description: (§1) The huCTLA-4 mutants used in the ELISA assays included non-mutated HXT huCTLA4 his, and mutated huCTLA4 N-his P27A, huCTLA4 N-his G28A, huCTLA4 N-his K29A and huCTLA4 N-his T31A. HuCTLA-4 his and its mutants were diluted with PBS (Hyclone) to 1.0 μg/mL, and a plate was coated with the dilution, incubated in an incubator at 37° C. for 90 min, washed and then blocked with 2% BSA. After the plate was washed, the monoclonal antibody huJS007-47 (serially diluted 2.5-fold with 2% BSA from 1000 ng/mL to 0.042 ng/mL) was added. The plate was incubated at 37° C. for 60 min and washed. A 1:5000 diluted HRP-conjugated goat anti-human antibody IgG (Fc specific) (Sigma, Catalog No. A0170) was used for detection. The plate was incubated at 37° C. for 60 min and then incubated with HRP substrate TMB (Sigma, Catalog No. T2885) at 37° C. for 15 min for color development. Finally, 2 M of hydrochloric acid was added to terminate the color development; during the addition, bubbles were avoided. Reading (wavelength: 450/620 nm) was done within 10 min using a microplate reader.
# huCTLA4 N-his K29A = target: T2, huCTLA4 N-his K29A (human, UniProt P16410 37-162); assay: as above
# T2 construct: … changed to …; not shown: N-terminal his-tag
# Description: as §1
# huCTLA4 N-his P27A = target: T3, huCTLA4 N-his P27A (human, UniProt P16410 37-162); assay: as above
# T3 construct: … changed to …; not shown: N-terminal his-tag
# Description: as §1
# hCTLA4 Nhis T31A = assay: as above
# Description: as §1
# huCTLA4 N-his G28A = target: T4, huCTLA4 N-his G28A (human, UniProt P16410 37-162); assay: ELISA: huCTLA4 N-his G28A coated at 1.0 µg/mL, huJS007-47 2.5-fold dilutions from 1000 to 0.042 ng/mL, HRP goat anti-human IgG (Fc), OD 450-620 nm
# T4 construct: … changed to …; not shown: N-terminal his-tag
# Description: as §1
binder,measurement,setting,value
"huJS007-47 (antibody, human IgG1, kappa, V domains shown, also called JS007 antibody; monoclonal antibody huJS007-47) VH: QVQLQESGPGLVKPSQTLSLTCTVSAYSITSGYYWNWIRQHPGKGLEWIGYIGYDGSNNYNPSLKSRVTISRDTSKNQFSLKLSSVTAADTAVYYCARDYYSGYFDSWGQGTTLTVSS VL: DIQMTQSPSSLSASVGDRVTITCRASQNVGTYVAWYQQKPGKVPKPLIYSTSYRYSGVPSRFSGSGSGTDFTLTISSLQPEDVATYFCHQYDTYPLTFGAGTKLELKR",EC50,[1],0.0136 µg/mL
same,EC50,huCTLA4 N-his K29A,0.0467 µg/mL
same,EC50,huCTLA4 N-his P27A,0.0333 µg/mL
same,EC50,hCTLA4 Nhis T31A,0.0136 µg/mL
same,binding result,huCTLA4 N-his G28A,no binding (tested: 1000 ng/mL (log 3))

# Source: US20230295301A1 (SHANGHAI JUNSHI BIOSCIENCES, published 2023)
